Residue numbers refer to the chain shown, from its start. Each block holds one binder with its values, some of them ahead of it.
Experiments:
[1] = molecular target: T1, Human Semaphorin3A-Sema Domain, TPP-19068 (human, UniProt Q14563 21-569); test: SPR, 100 nM TPP-19068, binding experiment
T1 construct: produced inhouse in HEK293-6E; also called human monovalent Sema3A domain
T1 sequence: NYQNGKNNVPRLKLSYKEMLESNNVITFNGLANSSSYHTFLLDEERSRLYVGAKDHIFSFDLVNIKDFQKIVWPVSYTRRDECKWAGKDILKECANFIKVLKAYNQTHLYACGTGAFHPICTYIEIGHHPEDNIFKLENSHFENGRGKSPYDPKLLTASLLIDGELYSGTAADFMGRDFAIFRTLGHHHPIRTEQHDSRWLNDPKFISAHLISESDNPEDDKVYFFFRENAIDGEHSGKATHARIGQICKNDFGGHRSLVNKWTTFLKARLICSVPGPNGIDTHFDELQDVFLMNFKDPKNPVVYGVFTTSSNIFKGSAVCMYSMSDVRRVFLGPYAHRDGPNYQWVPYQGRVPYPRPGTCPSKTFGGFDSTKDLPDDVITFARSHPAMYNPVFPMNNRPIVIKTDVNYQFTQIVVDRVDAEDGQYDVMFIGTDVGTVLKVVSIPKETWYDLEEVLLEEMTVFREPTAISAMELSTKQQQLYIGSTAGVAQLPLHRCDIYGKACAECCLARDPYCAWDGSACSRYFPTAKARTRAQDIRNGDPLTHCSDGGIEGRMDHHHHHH
Protocol: (§1) To assess the binding kinetics and affinity of anti-Sema3A antibodies as well as their species cross-reactivity profile, binding assays were conducted using surface plasmon resonance (SPR). Binding assays were performed on a Biacore T200 instrument or on a Biacore 8K+ instrument (Cytiva) at 25° C. using assay buffer HBS P+, 300 mM NaCl, 0.75 mM CaCl₂, 2.5 mM MgCl₂, 1 mg/ml BSA, 0.05% NaN₃. Antibodies were captured either via anti-human Fc IgGs (“Human antibody capture kit”, Order No. BR100839, Cytiva) or in case of Fc-tagged analytes by anti-human Fab IgGs (“Human Fab capture kit”, Order No. 28958325, Cytiva) covalently amine coupled to a Series S CM5 sensor chip (Cytiva). The amine coupling was carried out according to the manufacturer's instructions using 1-ethyl-3-(3-dimethylaminopropyl) carbodiimide hydrochloride (EDC), N-hydroxysuccinimide (NHS) and ethanolamine HCl, pH 8.5 (“Amine Coupling Kit” BR-1000-50, Cytiva.). For phage display hits Fc-tagged human and mouse Sema3A was used as analytes in a concentration range from 1.56-200 nM. Human, mouse, cynomolgus, rat, dog and pig monovalent Sema3A domain were used as analytes in a concentration series from […] in multi cycle kinetics mode or in 100 nM for binding analysis only. The sensor surface was regenerated with glycine pH 2.0 after each antigen injection. Obtained sensorgrams were double referenced (subtraction of reference flow cell signal and buffer injection) and were fitted to a 1:1 Langmuir binding model to derive kinetic data using the Biacore T200 Evaluation software.

[2] = molecular target: T2, Human Semaphorin3A-Fc (R&D Systems), TPP-13211 (human); test: competition ELISA on coated TPP-13211, competitor biotinylated TPP-15374
T2 construct: R&D Systems 1250-S3; also called recombinant human Sema3A-Fc chimera
Protocol: For screening in a competition ELISA setup, human Sema3a (TPP-13211) was coated onto 384-well plates (Greiner bio-one, 781077) with a concentration of 0.5 μg/ml in coating buffer (Carbonate-Basis pH 9.6, Candor 121125) over night at 10° C. After washing the plates 3 times with 50 μl PBS 0.05% Tween the plates were blocked with 50 μl Smart Block® (Candor 113500) for 1 h at 20° C. and washed again 3 times as described.
Subsequently, 20 μl of pre-mixed antibody solution was added to the plates and incubate for 18 h at 10° C. […] The total concentration of the added antibody solution was 0.25 μg/ml. During the incubation time the antibodies bound to the plates in a competitive manner as they compete for the same epitope on the human Sema3A protein.
After subsequent washing with 50 μl PBS 0.05% Tween for 3 times, 20 μl of a Streptavidin-HRP solution (R&D Systems, DY998, 1:200 in PBS 0.05% Tween 10% Smart Block) were added and incubated for 1 h and 20° C. followed by subsequent washing 3 times with 50 μl PBS 0.05% Tween and addition of 20 μl Amplex Red solution (Invitrogen A12222, 1:1000 in NaP-buffer 50 mM pH7.6 with 1:10000 of 30% H2O2). After a final incubation for 20 min at 20° C. the signal was determined using an emission wavelength of 595 nm and excitation of 530 nm.

[3] = molecular target: T1, Human Semaphorin3A-Sema Domain, …; test: SPR, captured antibody, Sema3A domain analyte
Protocol: as §1

[4] = molecular target: T2, Human Semaphorin3A-Fc (R&D Systems), …; test: cell-based or functional assay
[5] = molecular target: T2, Human Semaphorin3A-Fc (R&D Systems), …; test: cell-based or functional assay; remark: listed apart in the source

T2 sequence (chain, as listed by the source limits assumed): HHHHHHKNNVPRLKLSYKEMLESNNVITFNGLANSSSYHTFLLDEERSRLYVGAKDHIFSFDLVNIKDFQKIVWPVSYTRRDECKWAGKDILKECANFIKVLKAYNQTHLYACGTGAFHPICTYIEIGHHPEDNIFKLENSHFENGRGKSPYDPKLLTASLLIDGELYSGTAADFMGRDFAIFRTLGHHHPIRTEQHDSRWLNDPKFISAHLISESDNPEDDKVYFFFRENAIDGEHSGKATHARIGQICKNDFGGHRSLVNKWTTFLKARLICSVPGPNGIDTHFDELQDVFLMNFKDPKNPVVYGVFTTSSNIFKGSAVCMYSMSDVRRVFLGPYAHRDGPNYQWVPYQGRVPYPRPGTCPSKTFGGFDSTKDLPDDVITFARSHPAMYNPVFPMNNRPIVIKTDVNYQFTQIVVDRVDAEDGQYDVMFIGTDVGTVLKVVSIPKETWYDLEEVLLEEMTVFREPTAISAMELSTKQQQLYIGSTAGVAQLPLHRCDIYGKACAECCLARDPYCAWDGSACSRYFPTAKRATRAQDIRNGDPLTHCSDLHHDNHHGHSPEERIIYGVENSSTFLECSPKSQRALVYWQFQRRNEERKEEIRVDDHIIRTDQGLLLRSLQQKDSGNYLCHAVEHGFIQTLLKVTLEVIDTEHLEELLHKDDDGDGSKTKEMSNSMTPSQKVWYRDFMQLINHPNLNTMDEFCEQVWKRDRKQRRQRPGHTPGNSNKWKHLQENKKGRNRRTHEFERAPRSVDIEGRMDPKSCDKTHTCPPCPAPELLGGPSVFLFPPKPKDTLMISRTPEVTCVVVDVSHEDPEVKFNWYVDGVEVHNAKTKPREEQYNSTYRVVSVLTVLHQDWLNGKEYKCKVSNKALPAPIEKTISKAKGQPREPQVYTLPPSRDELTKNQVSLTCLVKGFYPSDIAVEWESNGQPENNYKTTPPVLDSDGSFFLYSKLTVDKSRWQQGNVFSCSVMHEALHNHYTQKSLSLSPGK

- Kd [1]: 350 pM
B1: TPP-31357 (Fab, V domains shown)
V domain 1: EVQLLESGGGLVQPGGSLRLSCAASGFTFRSYAVHWVRQAPGKGLEWVSSTEGSGVGTSYTDSVKGRFTISRDNSKNTLYLQMNSLRAEDTAVYYCARMLGGGNPLDYLDYWGQGTLVTVSS
V domain 2: QSVLTQPPSASGTPGQRVTISCSGSSSNLGEGYDVHWYQQLPGKAPKLLIYYSDFRPSGVSDRFSGSKSGTSASLAISGLQSEDEADYYCAAWDDSLSSQVFGGGTQVTVLG
notes: Fab heavy chain entry carries myc and His tags; also called Fab of 3H4 Univ Ramot

- VAL norm to TPP-9809 (1 to 1 ratio) [2]: 0.47
- VAL norm to TPP-9809 (1 to 5 ratio) [2]: 0.19
- Kd [3]: 53 pM
B2: TPP-25448 (antibody, human IgG1, lambda, V domains shown)
VH: EVQLLESGGGLVQPGGSLRLSCAASGFTFDSYEMNWVRQAPGKGLEWVSGISWNSGWIDYADSVKGRFTISRDNSKNTLYLQMNSLRAEDTAVYYCARSGYSSSWFDPDFDYWGQGTLVTVSS
VL: QSVLTQPPSVSGAPGQRVTISCTGSSSDIGAGYDVHWYQQLPGTAPKLLIYGNSNRPSGVPDRFSGSKSGTSASLAITGLQAEDEADYYCQSYAGINPYVVFGGGTKLTVLG

- VAL norm to TPP-9809 (1 to 1 ratio) [2]: 0.39
- VAL norm to TPP-9809 (1 to 5 ratio) [2]: 0.26
- Kd [3]: 52 pM
B3: TPP-25497 (antibody, human IgG1, lambda, V domains shown)
VH: B2 VH with T28D
VL: B2 VL with Q91S, A94E

- VAL norm to TPP-9809 (1 to 1 ratio) [2]: 0.49
- VAL norm to TPP-9809 (1 to 5 ratio) [2]: 0.18
- Kd [3]: 52 pM
B4: TPP-26111 (antibody, human IgG1, lambda, V domains shown)
VH: B2 VH
VL: B2 VL with D28N, Q91S, I96P

- VAL norm to TPP-9809 (1 to 1 ratio) [2]: 0.39
- VAL norm to TPP-9809 (1 to 5 ratio) [2]: 0.23
- Kd [3]: 49 pM
B5: TPP-25655 (antibody, human IgG1, lambda, V domains shown)
VH: B2 VH with T28D, D30S
VL: B2 VL with D28N, N53A, Q91S, A94E, I96P

- EC50 [nM], MCM assay [4]: 42.9 nM
- EC50 (nM), GCC assay [5]: 243 nM
B6: TPP-15051 (antibody, mouse IgG1)
heavy: EVQLLESGGGLVQPGGSLRLSCAASGFTFSSYPMGWVRQAPGKGLEWVAGIDDDGDSDTRYAPAVKGRATISRDNSKNTVYLQMNSLRAEDTAVYYCAKHTGIGANSAGSIDAWGQGTLVTVSSAKTTPPSVYPLAPGSAAQTNSMVTLGCLVKGYFPEPVTVTWNSGSLSSGVHTFPAVLQSDLYTLSSSVTVPSSTWPSETVTCNVAHPASSTKVDKKIVPRDCGCKPCICTVPEVSSVFIFPPKPKDVLTITLTPKVTCVVVDISKDDPEVQFSWFVDDVEVHTAQTQPREEQFNSTFRSVSELPIMHQDWLNGKEFKCRVNSAAFPAPIEKTISKTKGRPKAPQVYTIPPPKEQMAKDKVSLTCMITDFFPEDITVEWQWNGQPAENYKNTQPIMDTDGSYFVYSKLNVQKSNWEAGNTFTCSVLHEGLHNHHTEKSLSHSPGK
light: SYELTQPPSVSVSPGQTARITCSGGGSYTGSYYYGWYQQKPGQAPVTVIYYNNKRPSDIPERFSGSLSGTTNTLTISGVQAEDEADYYCGSADNSGDAFGTGTKVTVLGQPKSSPSVTLFPPSSEELETNKATLVCTITDFYPGVVTVDWKVDGTPVTQGMETTQPSKQSNNKYMASSYLTLTARAWERHSSYSCQVTHEGHTVEKSLSRADCS
